Measurements from US20210122804A1, “PEPTIDE LIGANDS FOR BINDING TO CD38” (BicycleTx Limited, priority 2018, published 2021).
*1 amine or outer side, *2 acyl side, *3 side chain or, on linkers, in order; H or OH if unused. Bridges are numbered along the chain shown (N, C = ends). Where no end group is shown, it is not given here. TATA = O=C(CC[*:1])N1CN(C(=O)CC[*:2])CN(C(=O)CC[*:3])C1; TBMB = c1c(C[*:1])cc(C[*:3])cc1C[*:2]

T1: human CD38 (Homo sapiens, UniProt P28907)
T1 sequence (P28907 1-300): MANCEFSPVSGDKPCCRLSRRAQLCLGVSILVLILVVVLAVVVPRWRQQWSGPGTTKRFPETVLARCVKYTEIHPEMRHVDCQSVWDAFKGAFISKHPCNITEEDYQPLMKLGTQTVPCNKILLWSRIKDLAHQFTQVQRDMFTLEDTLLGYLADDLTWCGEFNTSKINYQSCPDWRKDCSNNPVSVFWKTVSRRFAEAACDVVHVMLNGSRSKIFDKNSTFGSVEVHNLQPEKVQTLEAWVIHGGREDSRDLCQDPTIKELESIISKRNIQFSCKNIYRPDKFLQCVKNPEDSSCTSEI

T2: human CD38 (human, UniProt P28907 43-300, limits assumed)
T2 construct: construct used is not described; also called hCD38
T2 sequence (looked up): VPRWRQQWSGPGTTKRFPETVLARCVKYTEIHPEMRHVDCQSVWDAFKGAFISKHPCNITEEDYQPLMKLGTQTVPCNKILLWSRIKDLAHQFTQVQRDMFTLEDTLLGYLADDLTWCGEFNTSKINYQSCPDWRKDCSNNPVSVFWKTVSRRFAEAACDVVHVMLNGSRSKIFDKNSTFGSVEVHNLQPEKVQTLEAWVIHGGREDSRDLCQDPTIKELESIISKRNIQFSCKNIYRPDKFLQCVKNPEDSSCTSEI

B1: 66-50-16-T01-N001 (peptide)
peptide: ACYWNPFTACWSCEND
modifications: linker 2-10-13 via TATA (inferred)
notes: bicyclic
B2: 66-08-52-N001 (peptide)
peptide: ACFTLDGECFLLGENCA
modifications: linker 2-9-16 via TBMB
notes: bicyclic
B3: 66-50-19-T002-N001 (peptide)
peptide: ACYWNPFTACYSCTEN
modifications: linker 2-10-13 via TATA (inferred)
notes: bicyclic; also called 66-50-19-T02-N001

Experiments:
human CD38 [1] = molecular target: T1, human CD38; experiment: CD38 Competition Binding Assay (fluorescence polarisation); conditions: compared with all-thioether Reference Example 1
Experimental: CD38 Competition Binding Assay Affinity of various bicycle peptide compounds for human CD38 (Ki) was determined using a fluorescence polarisation assay, using the method reported by Lea et al (Expert Opin Drug Discov. 2011 6(1): 17-3) and using the following fluorescently labelled peptides […]-Sar6-K(F1) for TBMB derivatives and […]-Sar6-K(F1) for TATA derivatives where Fl is a fluorescein molecule.

human CD38 [2] = molecular target: T2, human CD38; experiment: fluorescence polarisation competition; tracer m11
human CD38 [3] = molecular target: T2, human CD38; experiment: fluorescence polarisation competition; tracer m10

| Molecule | Ki (human CD38 [2]) | further results |
| --- | --- | --- |
| [Ac]ACVPCADFPIWYC [BCY00009245] |  | affinity to CD38 (in words) (human CD38 [1]): high affinity |
| B1 | 90 nM |  |
| B2 |  | Ki (human CD38 [3]): 562 nM |
| B3 | 316 nM |  |
